In patent US12258605B2, “Alkane oxidation by modified hydroxylases” (The California Institute of Technology, priority 2005, dated 2025):
Marks after values point to notes of the source that are not given here.

How the values were obtained:
[1] = High-throughput dimethyl ether (DME) screen; assay type: biochemical; details: relative to 35-E11; normalized to P450 concentration
Description: (§1) Cell lysates for high throughput screening were prepared as described previously (Peters et al., J. Am. Chem. Soc. 125:13442 (2003); incorporated by reference herein). High-throughput dimethyl ether (DME) screens were performed in 96 well plates as described previously. Improved mutants were selected based on an increased signal compared to 9-10A (for the saturation mutagenesis libraries) and 1-12G (for the recombination library). Reactions on octane and propane were analyzed by gas chromatography as described.
Libraries of mutants of 35-E11 were screened for phenotypes indicative of either increased product formation on small gaseous substrates slightly larger than methane. Additionally, they were screened for increased coupling of the consumption of NADPH reducing equivalents to product formation. Product formation was determined by measuring total amount of dimethyl ether hydroxylation while increased coupling was determined primarily by decreased background NADPH consumption rates (measured spectrophotometrically at 340 nm in the absence of substrate).
The relative dimethyl ether (DME) activity was measured, 1 hour after treatment with Purpald, as the average net and absorbance at 550 nm from 8 microtitre plate DME reactions of the mutant compared to 8 equivalent reactions of 35-E11. All values were normalized by measuring the P450 concentration in each well with CO binding. “Asteriks” indicate criteria used to select mutants from libraries for further characterization. The oxidation rate is measured as absorbance change at 340 nm over 1 minute upon the addition of NADPH to 8 microtitre plate wells containing P450-containing cell lysate and compared to 8 equivalent reactions of 35-E11. All values were normalized by measuring the P450 concentration in each well with CO binding. The total turnover number (TTN) was measured as the absorbance at 550 nm of methane reactions with each mutant after treatment with alcohol oxidase and
Screening libraries by spectroscopically monitoring NADPH consumption rates in the presence of the alkane often selects for mutants with NADPH oxidation rates highly uncoupled to product formation. This can be overcome through the use of surrogate substrates that mimic desired substrates, yet yield species when hydroxylated that are easily detected either directly or with the addition of a dye. For example, the screen for the high-throughput identification of mutant BM-3 enzymes with activity towards propane as described previously uses dimethyl ether (DME) as a propane surrogate substrate. Upon hydroxylation, it decomposes into methanol and dye-sensitive formaldehyde. In addition, hexyl methyl ether (HME) may be used as a surrogate for octane. It shares most of the physical properties of octane, including solubility in buffer, size, shape, and strength of its C—H bonds. When HME is hydroxylated at its methoxy carbon, it also produces an equivalent of formaldehyde which is visually detected at concentrations as low as 10 μM with the dye Purpald (see FIG. 25). Hexanal, the aldehyde product formed when the α-carbon of the hexyl group is hydroxylated, is practically unreactive towards Purpald at some concentrations used in the present screens. Formaldehyde is approximately 42 times more sensitive to Purpald than hexanal (see FIG. 26). This disproportionate response makes HME, in contrast to the symmetric ether DME, a regio-selective screen for terminal alkane hydroxylation.
High-throughput screening. Single colonies were picked and inoculated by a Qpix robot (Genetix, Beaverton, OR) into 1-mL, deep-well plates containing LB (Amp*) medium (400 μL). The plates were incubated at 30° C., 250 rpm, and 80% relative humidity. After 24 h, 50 μL from this pre-culture were used to inoculate a 2-mL, deep-well plates containing […] TB (Amp^+) medium per well. Cultures were grown at 37° C., 220 rpm, and 80% relative humidity. […]

[2] = Octane hydroxylation (rate, ttn, regio- and enantioselectivity); assay type: biochemical
Description: as §1
Rates of ethanol formation were measured over 30 min using gas chromatography (GC) coupled to an electron capture detector (ECD) and are reported as nmol ethanol/min/nmol enzyme. Errors are at most 10%. Total turnover number (ttn) was measured using GC after completion of the reaction and is reported as nmol product/nmol protein. Errors are at most 10%. Initial rates of propanol and octanol formation were measured over 1 min by GC and are reported as nmol product/min/nmol protein. Errors are at most 15%. The “ee” of 2-octanol (main product) was measured by GC; the favored enantiomer is listed in parenthesis. Wild-type P450 BM-3 primarily produces 3- and 4-octanol. The yields were not sufficient for the determination of ee for wt BM-3. Mutant 9-10A contains amino acid substitutions R47C, V78A K94I, P142S, T175I, A184V, F205C, S226R, H236Q, E252G, R255S, A290V, and L353V.
In Table 5 the product distribution is determined as ratio of a specific alcohol product to the total amount of all alcohol products (given in %). The product distribution for ketones was similar to alcohol product distribution. The numbers reported here are the (%) total of all ketones relative to total products (alcohols+ketones). The favored enantiomer is listed in parentheses.
For the data shown in Table 6 the initial NADPH consumption rates were measured over 15 seconds at 340 nm as nmol NADPH/min/nmol protein. Octane reactions contained 100 nM P450, 166 uM NADPH, and 4 mM octane in 1% ethanol and potassium phosphate buffer. […] Errors are at most 10%. Initial rates were measured by GC over 1 minute as nmol total products/min/nmol protein. Octane reactions contained 100 nM P450, 500 uM NADPH, and 4 mM octane in 1% ethanol and potassium phosphate buffer. Propane reactions contained 1 uM P450, 500 uM NADPH, and propane-saturated potassium phosphate buffer. Coupling was determined by ratio of product formation rate to NADPH consumption rate. Total turnover numbers were determined as nmol product/nmol enzyme. Octane reactions contained 10-25 nM P450, 500 uM NADPH, and 4 mM octane in 1% ethanol and potassium phosphate buffer. Propane reactions contained 10-25 nM protein, potassium phosphate buffer saturated with propane, and an NADPH regeneration system containing 100 uM NADP+, 2 U/mL isocitrate dehydrogenase, and 10 mM isocitrate.
Twenty-one single active site mutants with increased activity towards either of these substrates were isolated. Mutations that improved the activity were found at amino acid positions L75 (I, W), A78 (T, F, S), A82 (T, S, F, I, C, G, L), F87 (I, V, L), T88 (C), T260 (N, L, S) and A328 (L, F, M). The single active site mutants of 9-10A were characterized by their altered regioselectivity towards octane. Each of these mutations produces a characteristic octanol product distribution as a result of their presence altering the active site geometry above the heme cofactor. Transformations were carried out using cell lysates. The mutations were generated in variant 9-10A (with amino acid mutations R47C, V78A, K94I, P142S, T175I, A184V, F205C, S226R, H236Q, E252G, R255S, A290V, L353V). “Others” indicates over oxidation products (ketones and aldehydes) with a similar product distribution as the alcohols. “Rate” was measured as nmol octanol/nmol P450/minute. “TTN” was measured as nmol octanol/nmol P450 produced in 4 hour reaction.
Mutations are relative to variant 9-10A (described above). Wild-type has a valine at position 78. […]

B1: 20-D3: P450 BM-3 variant, SEQ ID NO:11; 35-E11 plus H285R (protein)
chain: TIKEMPQPKTFGELKNLPLLNTDKPVQALMKIADELGEIFKFEAPGCVTRYLSSQRLIKEACDESRFDKNLSQALKFFRDFSGDGLFTSWTHEINWKKAHNILLPSFSQQAMKGYHAMMVDIAVQLVQKWERLNADEHIEVSEDMTRLTLDTIGLCGFNYRFNSFYRDQPHPFIISMVRALDEVMNKLQRANPDDPAYDENKRQCQEDIKVMNDLVDKIIADRKARGEQSDDLLTQMLNGKDPETGEPLDDGNISYQIITFLIAGHETTSGLLSFALYFLVKNPRVLQKVVEEAARVLVDPVPSYKQVKQLKYVGMVLNEALRLWPTFPAFSLYAKEDTVLGGEYPLEKGDEVMVLIPQLHRDKTIWGDDVEEFRPERFENPSAIPQHAFKPFGNGQRACIGQQFALHEATLVLGMMLKHFDFEDHTNYELDIKETLTLKPEGFVVKAKSKKIPLGGIPSPSTGQSAKKVRKKAENAHNTPLLVLYGSNMGTAEGTARDLADIAMSKGFAPQVATLDSHAGNLPREGAVLIVTASYNGHPPDNAKQFVDWLDQASADEVKGVRYSVFGCGDKNWATTYQKVPAFIDETLAAKGAENIADRGEADASDDFEGTYEEWREHMWSDVAAYFNLDIENSEDNKSTLSLQFVDSAADMPLAKMHGAFSTNVVASKELQQPGSARSTRHLEIELPKEASYQEGDHLGVIPRNYEGTVNRVTARFGLDASQQIRLEAEEEKLAHLPLAKTVSVEELLQYVELQDPVTRTQLRAMAAKTVCPPHKVELEALLEKQAYKEQVLAKRLTMLELLEKYPACEMKFSEFIALLPSIRPRYYSISSSPRVDEKQASITVSVVSGEAWSGYGEYKGIASNYLAELQEGDTITCFISTPQSEFTLPKDPETPLIMVGPGTGVAPFRGFVQARKQLKEQGQSLGEAHLYFGCRSPHEDYLYQEELENAQSEGIITLHTAFSRMPNQPKTYVQHVMEQDGKKLIELLDQGAHFYICGDGSQMAPAVEATLMKSYADVHQVSEADARLWLQQLEEKGRYAKDVWAG
modifications: mutant P450 20-D3 protein sequence
notes: 35-E11 plus H285R
Relative DME activity in screen [1]: 1.7*

B2: Wild-type BM-3: wild-type cytochrome P450 BM-3 from Bacillus megaterium, SEQ ID NO:1 (protein, listed as Bacillus megaterium)
chain: TIKEMPQPKTFGELKNLPLLNTDKPVQALMKIADELGEIFKFEAPGRVTRYLSSQRLIKEACDESRFDKNLSQALKFVRDFAGDGLFTSWTHEKNWKKAHNILLPSFSQQAMKGYHAMMVDIAVQLVQKWERLNADEHIEVPEDMTRLTLDTIGLCGFNYRFNSFYRDQPHPFITSMVRALDEAMNKLQRANPDDPAYDENKRQFQEDIKVMNDLVDKIIADRKASGEQSDDLLTHMLNGKDPETGEPLDDENIRYQIITFLIAGHETTSGLLSFALYFLVKNPHVLQKAAEEAARVLVDPVPSYKQVKQLKYVGMVLNEALRLWPTAPAFSLYAKEDTVLGGEYPLEKGDELMVLIPQLHRDKTIWGDDVEEFRPERFENPSAIPQHAFKPFGNGQRACIGQQFALHEATLVLGMMLKHFDFEDHTNYELDIKETLTLKPEGFVVKAKSKKIPLGGIPSPSTEQSAKKVRKKAENAHNTPLLVLYGSNMGTAEGTARDLADIAMSKGFAPQVATLDSHAGNLPREGAVLIVTASYNGHPPDNAKQFVDWLDQASADEVKGVRYSVFGCGDKNWATTYQKVPAFIDETLAAKGAENIADRGEADASDDFEGTYEEWREHMWSDVAAYFNLDIENSEDNKSTLSLQFVDSAADMPLAKMHGAFSTNVVASKELQQPGSARSTRHLEIELPKEASYQEGDHLGVIPRNYEGIVNRVTARFGLDASQQIRLEAEEEKLAHLPLAKTVSVEELLQYVELQDPVTRTQLRAMAAKTVCPPHKVELEALLEKQAYKEQVLAKRLTMLELLEKYPACEMKFSEFIALLPSIRPRYYSISSSPRVDEKQASITVSVVSGEAWSGYGEYKGIASNYLAELQEGDTITCFISTPQSEFTLPKDPETPLIMVGPGTGVAPFRGFVQARKQLKEQGQSLGEAHLYFGCRSPHEDYLYQEELENAQSEGIITLHTAFSRMPNQPKTYVQHVMEQDGKKLIELLDQGAHFYICGDGSQMAPAVEATLMKSYADVHQVSEADARLWLQQLEEKGRYAKDVWAG
rate of octane hydroxylation [2]: 30 min⁻¹
Octane ttn ([2]; 1% ethanol): 150 nmol product/nmol protein
Octane Rate ([2]; initial rate of octanol formation over 1 min, 1% ethanol): 30 nmol product/min/nmol protein
Octane % 2-octanol ([2]; regioselectivity): 17%
